Results as given in US20130064817A1 (Merck Sharp & Dohme, published 2013).
One block for each binder: values may come before it.

Columns and labels:
human IL-23R [1] = biological target: T1, human IL-23R (human, UniProt Q5VWK5 24-353, limits assumed); test: KinExA
T1 construct: KinExA particles are coated with biotinylated IL-23R 'or a fragment thereof, such as the extracellular domain'; also called huIL-23R; hIL-23R
T1 sequence: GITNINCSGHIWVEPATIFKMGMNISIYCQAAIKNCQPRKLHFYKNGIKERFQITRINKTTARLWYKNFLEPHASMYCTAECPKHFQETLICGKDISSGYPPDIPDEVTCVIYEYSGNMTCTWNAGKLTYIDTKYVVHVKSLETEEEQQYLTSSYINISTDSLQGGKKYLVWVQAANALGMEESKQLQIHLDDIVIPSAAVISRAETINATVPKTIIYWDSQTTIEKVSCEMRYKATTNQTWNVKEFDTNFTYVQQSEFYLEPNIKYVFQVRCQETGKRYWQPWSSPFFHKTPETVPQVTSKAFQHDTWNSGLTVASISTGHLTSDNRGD
Procedure: The equilibrium dissociation constants (Kd) for anti human IL-23R antibodies are determined using the KinExA 3000 instrument. Sapidyne Instruments Inc., Boise Id., USA KinExA uses the principle of the Kinetic Exclusion Assay method based on measuring the concentration of uncomplexed antibody in a mixture of antibody, antigen and antibody-antigen complex. The concentration of free antibody is measured by exposing the mixture to a solid-phase immobilized antigen for a very brief period of time. In practice, this is accomplished by flowing the solution phase antigen-antibody mixture past antigen-coated particles trapped in a flow cell. Data generated by the instrument are analyzed using custom software. Equilibrium constants are calculated using a mathematical theory based on the following assumptions:
PMMA particles (Sapidyne, Cat No. 440198) are coated with biotinylated IL-23R (or a fragment thereof, such as the extracellular domain) according to Sapidyne “Protocol for coating PMMA particles with biotinylated ligands having short or nonexistent linker arms.” EZ-link TFP PEO-biotin (Pierce, Cat. No. 21219) is used to make biotinylated IL-23R, as per the manufacturer's recommendations (Pierce bulletin 0874).

human IL-23R [2] = biological target: T1, human IL-23R; test: BIAcore, antibody immobilized on CM5 chip
Procedure: (§1) BIAcore® label-free interaction analysis system determinations are performed essentially as described at Example 4 of U.S. Patent Application Publication No. 2007/0048315. Briefly, ligands (anti-IL-23R mAbs) are immobilized on a BIAcore® label-free interaction analysis system CM5 sensor chip using standard amine-coupling procedure. Kinetic constants for the various interactions are determined using BIAevaluation software 3.1. The Kd is determined using the calculated dissociation and association rate constants.

[3] = biological target: T2, human IL-23R on human cells (primary splenocytes; KIT225 cells) (human, UniProt Q5VWK5 24-629); test: cell-based or functional assay
T2 sequence: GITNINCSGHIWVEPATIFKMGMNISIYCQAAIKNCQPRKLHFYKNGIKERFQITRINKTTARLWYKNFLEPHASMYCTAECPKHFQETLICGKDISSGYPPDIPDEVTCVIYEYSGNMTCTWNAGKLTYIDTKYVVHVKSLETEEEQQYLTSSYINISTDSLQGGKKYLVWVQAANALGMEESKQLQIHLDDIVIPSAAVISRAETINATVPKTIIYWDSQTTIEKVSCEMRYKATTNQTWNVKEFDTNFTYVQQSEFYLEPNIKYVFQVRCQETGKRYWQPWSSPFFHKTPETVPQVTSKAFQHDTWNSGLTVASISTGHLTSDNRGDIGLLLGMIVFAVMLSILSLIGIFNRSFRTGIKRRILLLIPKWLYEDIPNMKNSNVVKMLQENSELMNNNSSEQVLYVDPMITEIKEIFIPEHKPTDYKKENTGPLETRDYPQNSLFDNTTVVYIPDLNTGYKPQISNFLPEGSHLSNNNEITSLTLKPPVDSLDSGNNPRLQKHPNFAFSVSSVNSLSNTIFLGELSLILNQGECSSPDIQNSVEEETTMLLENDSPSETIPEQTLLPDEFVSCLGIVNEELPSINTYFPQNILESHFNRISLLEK

human IL-23R [4] = biological target: T1, human IL-23R; test: BIAcore, essentially as in Example 4
Procedure: as §1

Kd (human IL-23R [1]): 0.009 nM
Kd (human IL-23R [2]): ~0.085 nM
B1: mouse anti-human IL-23R antibody 20D7 (antibody, mouse IgG1, V domains shown)
VH: QIQLVQSGPELKKPGETVKISCKASGYTFTNYAMNWVKQAPGKGLKWMGWINTYTGEPTYSDDFKGRFAFSLETSANTAYLQINNLKNEDTAAYFCTRGGGYDEDYFDYWGQGTTLTVSS
VL: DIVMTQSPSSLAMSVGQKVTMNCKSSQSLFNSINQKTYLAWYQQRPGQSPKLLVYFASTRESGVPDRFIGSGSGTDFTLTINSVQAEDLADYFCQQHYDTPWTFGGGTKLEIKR
notes: also called m20D7; mouse 20D7 antibody

IC50, IFN-γ production by human primary splenocytes exposed to human IL-23 (170 pM) [3]: 34 pM
IC50, STAT3 phosphorylation in KIT225 cells stimulated with 138 pM human IL-23 [3]: 34 pM
Kd (human IL-23R [4]): 0.131 nM
B2: humanized anti-IL-23R antibody hum20D7 (heavy chain hu20D7-c, light chain hu20D7-II-b) (antibody, human IgG1, kappa, V domains shown)
VH: QVQLVQSGAEVKKPGASVKVSCKASGYTFTNYAMNWVRQAPGQGLEWMGWINTYTGEPTYSDDFKGRVTFTLDTSTSTAYMELRSLRSDDTAVYYCARGGGYDEDYFDYWGQGTLVTVSS
VL: DIVMTQSPLSLPVTPGEPASISCKSSQSLFNTINQKTYLAWYLQKPGQSPQLLIYFASTRESGVPDRFSGSGSGTDFTLKISRVEAEDVGVYYCQQHYDTPWTFGQGTKVEIKR

Kd (human IL-23R [1]): 0.042 nM
Kd (human IL-23R [2]): ~0.3 nM
B3: rat anti-human IL-23R antibody 8B10 (antibody, rat IgG2a, V domains shown)
VH: EVKLVESGGGLEQPKGSLKLSCTVSGFDFNSYGMSWVRQAPGKGLDLVADINSKSYNYATYYADSVKDRFTISRDDSQSMVYLEMDNLKTEDTALYYCTVHHSDYFEYWGQGVMVTVSS
VL: DIQMTQSPASLSASLGETVSIECLASEDIYNNLAWYQQKPGKSPQLLIYHASSLQDGVPSRFSGSGSGTQYSLKINSLESEDAATYFCLQDSEYPPTFGGGTKLELKR
notes: also called r8B10; parental rat 8B10 antibody
